Series [1] concerns the target T1, NF-ATp XS (464-aa recombinant fragment of murine NF-ATp) (Mus musculus, UniProt Q60591 SEQ:226-689).
T1 chain: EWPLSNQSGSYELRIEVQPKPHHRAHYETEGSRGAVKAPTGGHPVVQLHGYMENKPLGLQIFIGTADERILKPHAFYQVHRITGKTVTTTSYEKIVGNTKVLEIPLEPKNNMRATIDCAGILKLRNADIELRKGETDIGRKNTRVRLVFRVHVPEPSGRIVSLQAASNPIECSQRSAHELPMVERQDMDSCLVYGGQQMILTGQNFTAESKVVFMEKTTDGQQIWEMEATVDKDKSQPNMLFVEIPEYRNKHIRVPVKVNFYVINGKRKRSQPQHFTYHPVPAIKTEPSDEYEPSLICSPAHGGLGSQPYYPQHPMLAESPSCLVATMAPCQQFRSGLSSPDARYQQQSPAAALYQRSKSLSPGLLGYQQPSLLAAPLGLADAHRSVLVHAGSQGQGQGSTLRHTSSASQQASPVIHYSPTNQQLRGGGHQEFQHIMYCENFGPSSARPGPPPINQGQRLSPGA
Briefly: competition; 200-fold excess competes as strongly as wild type. As to the method: (§1) EMSAs were performed using 18 μl of renatured proteins in a 30 μl mix containing 4 mM Hepes, pH 7.4, 84 mM NaCl, 20 mM KCl, 0.08 mM EDTA, 9% glycerol, 0.7 mg/ml BSA, 17 μg/ml poly(dI:dC) and 0.125 ng of ^32P-labelled oligonucleotide. For competition assays, a 200-fold excess of unlabeled oligonucleotide was added to the reaction. The reactions were incubated for 15 minutes at room temperature followed by electrophoresis at 4° C. on 4% Tris/borate/EDTA/acrylamide gels. The NF-AT oligonucleotide used had the sequence GCCCAAAGAG-GAAAATTTGTTTCATACAG (SEQ ID NO:1), corresponding to the distal NF-AT site from the murine IL-2 promoter (nucleotides −295 to −267 relative to the transcription start site, (Serfling, E., Barthelmas, R., Pfeuffer, I., Schenk, B., Zarius, S., Swoboda, R., Mercurio, F., and Karin, M. (1989) *EMBO J.* 8, 465–473)). Oligonucleotides bearing mutations in the NF-AT site were as follows: M1, […] (SEQ ID NO:2); M2, […] […]
(§2) Figure 12: FIG. 12 is a photograph of an EMSA gel. Binding of a recombinant fragment of NF-AT_p (NF-AT_pXS) to target DNA and association of the recombinant NF-AT_p fragment with Fos and Jun proteins was evaluated. The binding of the recombinant fragment of murine NF-AT_p to the distal NF-AT site of the murine IL-2 promoter was assessed by EMSA in the presence or absence of a 200-fold excess of unlabelled competitor oligonucleotides as shown in Lane 1–5. […]

Series [2] deals with T1, NF-ATp XS (464-aa recombinant fragment …). Briefly: competition; 200-fold excess does not compete. As to the method: as §1, §2
Series [3] has the same target. The series is described as follows: EMSA; two complexes; self-competed by 200-fold excess; methylation interference shows GGAA core required. The settings on record: label: 32P. As to the method: as §1, §2
Series [4] deals with T2, NF-ATp (purified from Cl.7W2 T cells) (Mus musculus, UniProt Q60591 SEQ:1-890).
T2 chain: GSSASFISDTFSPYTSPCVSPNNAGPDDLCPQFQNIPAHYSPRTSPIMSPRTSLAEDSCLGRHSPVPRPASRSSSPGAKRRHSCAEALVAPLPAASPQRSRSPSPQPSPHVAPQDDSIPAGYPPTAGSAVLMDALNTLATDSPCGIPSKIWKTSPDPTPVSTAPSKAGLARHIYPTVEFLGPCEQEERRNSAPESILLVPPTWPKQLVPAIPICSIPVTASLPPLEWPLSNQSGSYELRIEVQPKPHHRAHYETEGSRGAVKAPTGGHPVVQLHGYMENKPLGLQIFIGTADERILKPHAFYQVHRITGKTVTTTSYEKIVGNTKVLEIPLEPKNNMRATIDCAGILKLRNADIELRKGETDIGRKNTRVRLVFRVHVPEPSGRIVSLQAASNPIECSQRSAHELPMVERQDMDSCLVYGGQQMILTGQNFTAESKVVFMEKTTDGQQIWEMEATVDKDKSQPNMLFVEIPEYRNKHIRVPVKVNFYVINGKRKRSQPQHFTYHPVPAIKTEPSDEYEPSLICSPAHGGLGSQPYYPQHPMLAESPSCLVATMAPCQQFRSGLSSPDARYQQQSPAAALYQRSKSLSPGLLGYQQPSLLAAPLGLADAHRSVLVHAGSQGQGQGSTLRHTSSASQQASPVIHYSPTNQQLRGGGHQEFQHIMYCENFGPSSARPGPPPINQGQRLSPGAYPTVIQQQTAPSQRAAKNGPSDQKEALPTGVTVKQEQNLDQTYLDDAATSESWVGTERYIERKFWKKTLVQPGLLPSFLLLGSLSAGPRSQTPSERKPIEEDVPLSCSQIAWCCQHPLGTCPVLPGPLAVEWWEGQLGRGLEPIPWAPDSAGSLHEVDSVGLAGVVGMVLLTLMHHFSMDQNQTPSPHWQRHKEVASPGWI
The series is described as follows: EMSA; purified 120 kDa protein, renatured from gel. As to conditions: tags: native; label: 32P. The method, then:
EMSAs were performed using 18 μl of renatured proteins in a 30 μl mix containing 4 mM Hepes, pH 7.4, 84 mM NaCl, 20 mM KCl, 0.08 mM EDTA, 9% glycerol, 0.7 mg/ml BSA, 17 μg/ml poly(dI:dC) and 0.125 ng of ^32P-labelled oligonucleotide. For competition assays, a 200-fold excess of unlabeled oligonucleotide was added to the reaction. The reactions were incubated for 15 minutes at room temperature followed by electrophoresis at 4° C. on 4% Tris/borate/EDTA/acrylamide gels. The NF-AT oligonucleotide used had the sequence GCCCAAAGAG-GAAAATTTGTTTCATACAG (SEQ ID NO:1), corresponding to the distal NF-AT site from the murine IL-2 promoter (nucleotides −295 to −267 relative to the transcription start site, (Serfling, E., Barthelmas, R., Pfeuffer, I., Schenk, B., Zarius, S., Swoboda, R., Mercurio, F., and Karin, M. (1989) *EMBO J.* 8, 465–473)). Oligonucleotides bearing mutations in the NF-AT site were as follows: M1, […] (SEQ ID NO:2); M2, […] (SEQ ID NO:3); M3, […] […]
Figure 8: FIG. 8 is a photograph of an EMSA gel showing an analysis of NF-AT_p by renaturation of NF-AT_p activity following purification of the protein using SDS-polyacrylamide gel electrophoresis. […] After electrophoresis, the gel was sliced, proteins were eluted from gel slices and renatured, and the fractionated proteins were evaluated in an EMSA for their ability to bind to the NF-AT site of the murine IL-2 promoter.
A general note: Mobility shift assays separate free from complexed probe on a gel.

The target in another series is c-Fos + c-Jun (UniProt P12841;P17325 P12841:1-380,P17325:1-334). Briefly: EMSA; no NF-ATp present. As to conditions: tags: full-length; label: 32P. As to the method:
(§3) Figure 12: FIG. 12 is a photograph of an EMSA gel. Binding of a recombinant fragment of NF-AT_p (NF-AT_pXS) to target DNA and association of the recombinant NF-AT_p fragment with Fos and Jun proteins was evaluated. The binding of the recombinant fragment of murine NF-AT_p to the distal NF-AT site of the murine IL-2 promoter was assessed by EMSA in the presence or absence of a 200-fold excess of unlabelled competitor oligonucleotides as shown in Lane 1–5. The arrows indicate two DNA-protein complexes formed with NF-AT_pXS. Full-length recombinant c-Fos and c-Jun proteins were included in the same binding reactions, as shown in Lanes 7–9. The open arrows indicate Jun—Jun-NF-AT_pXS complexes, while the closed arrows indicate Fos-Jun-NF-AT_pXS complexes.

The target in the next series is NF-ATp XS + c-Jun (UniProt Q60591;P17325 Q60591:400-863,P17325:1-334). Briefly: EMSA; slower-migrating Jun-Jun-NF-ATp complex. As to conditions: tags: His6 on NF-ATp XS; full-length c-Jun; label: 32P. As to the method:
as §3

The target in series [5] is NF-ATp (T cell) + c-Fos + c-Jun (UniProt Q60591;P12841;P17325 Q60591:1-927,P12841:1-380,P17325:1-334). The series is described as follows: EMSA; upper complex with partially purified NF-ATp; not seen with c-Fos only. The settings on record: tags: native NF-ATp with recombinant c-Fos and c-Jun; label: 32P. As to the method: Figure 7: FIG. 7 is a photograph of an EMSA gel showing the results of an EMSA. […] Partially purified NF-AT_p was incubated with labeled oligonucleotide corresponding to the distal NF-AT site of the murine IL-2 promoter, either alone (lanes 1, 7, 13), with full length or truncated (T) recombinantly produced c-Fos and c-Jun proteins (lanes 2–5 and 8–11, respectively) or with an equivalent concentration of bovine serum albumin. Lane 5 contained 50% more c-Fos and c-Jun compared to lane 4. Lanes 11–13 contain half the amount of NF-AT_p compared to lanes 1–10. […] Bound complexes were separated from free probe by EMSA. The position of free probe, of the lower (NF-AT_p) complex and upper (NF-AT_p-Fos-Jun) complex are indicated.
Sequence of NF-ATp (T cell) + c-Fos + c-Jun (Q60591 whole entry, chain 1 of 3, the tested form may be a part): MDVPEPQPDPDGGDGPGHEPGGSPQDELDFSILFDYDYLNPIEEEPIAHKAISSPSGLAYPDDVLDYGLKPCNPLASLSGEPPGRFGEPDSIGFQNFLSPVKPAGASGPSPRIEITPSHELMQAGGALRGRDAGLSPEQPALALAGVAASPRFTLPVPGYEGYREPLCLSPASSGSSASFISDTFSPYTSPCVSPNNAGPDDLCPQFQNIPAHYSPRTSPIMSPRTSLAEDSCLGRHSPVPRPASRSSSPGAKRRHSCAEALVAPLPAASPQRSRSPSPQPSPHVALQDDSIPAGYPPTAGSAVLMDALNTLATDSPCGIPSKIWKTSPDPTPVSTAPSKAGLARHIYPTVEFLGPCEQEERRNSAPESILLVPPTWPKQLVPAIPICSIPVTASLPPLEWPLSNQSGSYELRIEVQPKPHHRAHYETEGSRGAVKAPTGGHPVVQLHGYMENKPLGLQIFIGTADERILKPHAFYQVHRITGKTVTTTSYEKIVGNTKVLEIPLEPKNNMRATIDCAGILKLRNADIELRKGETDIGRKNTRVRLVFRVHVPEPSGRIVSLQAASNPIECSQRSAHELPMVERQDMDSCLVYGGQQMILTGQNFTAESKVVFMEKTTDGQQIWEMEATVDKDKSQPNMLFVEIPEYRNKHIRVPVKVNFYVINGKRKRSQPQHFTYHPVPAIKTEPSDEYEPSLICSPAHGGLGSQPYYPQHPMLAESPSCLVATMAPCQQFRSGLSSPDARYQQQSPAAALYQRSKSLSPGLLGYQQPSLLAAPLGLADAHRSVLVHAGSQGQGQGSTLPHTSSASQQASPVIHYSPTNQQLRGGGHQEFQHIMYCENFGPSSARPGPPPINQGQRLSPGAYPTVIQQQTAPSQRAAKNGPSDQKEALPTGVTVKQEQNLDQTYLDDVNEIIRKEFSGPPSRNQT
Sequence of NF-ATp (T cell) + c-Fos + c-Jun (P12841 whole entry, chain 2 of 3, the tested form may be a part): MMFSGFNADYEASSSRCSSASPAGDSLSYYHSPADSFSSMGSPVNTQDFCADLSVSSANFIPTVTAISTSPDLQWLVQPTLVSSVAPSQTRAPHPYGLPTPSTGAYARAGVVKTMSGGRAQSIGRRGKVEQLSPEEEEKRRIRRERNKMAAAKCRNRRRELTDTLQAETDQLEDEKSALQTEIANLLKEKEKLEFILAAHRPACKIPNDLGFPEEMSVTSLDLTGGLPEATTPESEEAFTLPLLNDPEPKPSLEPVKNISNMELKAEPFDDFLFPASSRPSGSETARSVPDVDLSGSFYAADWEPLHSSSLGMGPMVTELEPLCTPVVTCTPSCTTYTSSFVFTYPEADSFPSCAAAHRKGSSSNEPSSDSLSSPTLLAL
Sequence of NF-ATp (T cell) + c-Fos + c-Jun (P17325 whole entry, chain 3 of 3, the tested form may be a part): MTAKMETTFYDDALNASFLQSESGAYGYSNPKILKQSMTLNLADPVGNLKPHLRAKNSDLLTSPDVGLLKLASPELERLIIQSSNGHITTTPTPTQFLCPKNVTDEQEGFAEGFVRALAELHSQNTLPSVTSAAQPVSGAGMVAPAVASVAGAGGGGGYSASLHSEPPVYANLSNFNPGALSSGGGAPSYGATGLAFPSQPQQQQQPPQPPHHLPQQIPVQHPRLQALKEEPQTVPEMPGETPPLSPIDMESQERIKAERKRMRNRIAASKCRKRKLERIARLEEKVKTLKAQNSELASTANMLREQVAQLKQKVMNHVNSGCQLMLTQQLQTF

In series [6] the target is NF-ATp XS + c-Fos + c-Jun (UniProt Q60591;P12841;P17325 Q60591:400-863,P12841:1-380,P17325:1-334). The series is described as follows: EMSA; Fos-Jun-NF-ATp complex; competed by AP-1 oligonucleotide; c-Fos alone does not associate. The settings on record: tags: His6 on NF-ATp XS; full-length c-Fos and c-Jun; label: 32P. As to the method: as §3
Sequence of NF-ATp XS + c-Fos + c-Jun (P12841 whole entry, chain 2 of 2): as the sequence (P12841 whole entry, chain 2 of 3, the tested form may be a part) above
Sequence of NF-ATp XS + c-Fos + c-Jun (P17325 whole entry, chain 3 of 2): as the sequence (P17325 whole entry, chain 3 of 3, the tested form may be a part) above

Sequence of NF-ATp XS + c-Jun (P17325 whole entry, one chain of several): as the sequence (P17325 whole entry, chain 3 of 3, the tested form may be a part) above
Sequence of c-Fos + c-Jun (P12841 whole entry, chain 1 of 2, the tested form may be a part): as the sequence (P12841 whole entry, chain 2 of 3, the tested form may be a part) above
Sequence of c-Fos + c-Jun (P17325 whole entry, chain 2 of 2, the tested form may be a part): as the sequence (P17325 whole entry, chain 3 of 3, the tested form may be a part) above

B1: M1 (dsDNA)
DNA 1: GCCCAAAGAGGAAAATTTGTTTATATCAG
DNA 2: CTGATATAAACAAATTTTCCTCTTTGGGC
Turning to B1, in series [1], the binding result is “binds”.

B2: M3 (dsDNA)
DNA 1: GCCCAAAGACCTTAATTTGTTTCATACAG
DNA 2: CTGTATGAAACAAATTAAGGTCTTTGGGC
Turning to B2, in series [2], the binding result is on record as “no binding”.

B3: NF-AT oligonucleotide (distal NF-AT site, murine IL-2 promoter) (dsDNA)
DNA 1: GCCCAAAGAGGAAAATTTGTTTCATACAG
DNA 2: CTGTATGAAACAAATTTTCCTCTTTGGGC
B3: the binding result in series [3] is listed as “binds”; in series [4], “binds”; in the series with c-Fos + c-Jun, “no binding”; with NF-ATp XS + c-Jun, “binds”; in series [5] it was “binds”; in series [6], “binds”.

The values are drawn from patent US5656452A, “NF-ATp, ' a T lymphocyte DNA-binding protein” (President and Fellows of Harvard College, priority 1993, dated 1997).
